{"source": "paper PMC4536308", "key": {"AUF1 p42": {"target": "AUF1 p42 (UniProt Q14103-2 1-336)", "assay": "fluorescence anisotropy"}, "AUF1 p37": {"target": "AUF1 p37 (UniProt Q14103-4 1-287)", "assay": "fluorescence anisotropy"}, "AUF1 p37 C207E [1]": {"target": "T1, AUF1 p37 C207E (UniProt Q14103-4 1-287, C207E)", "assay": "fluorescence anisotropy"}, "AUF1 p37 C207E [2]": {"target": "T1, AUF1 p37 C207E", "assay": "EMSA"}, "HILI (hHILI)": {"target": "HILI (hHILI) (human, UniProt Q8TC59 1-973)", "sequence (Q8TC59 whole entry)": "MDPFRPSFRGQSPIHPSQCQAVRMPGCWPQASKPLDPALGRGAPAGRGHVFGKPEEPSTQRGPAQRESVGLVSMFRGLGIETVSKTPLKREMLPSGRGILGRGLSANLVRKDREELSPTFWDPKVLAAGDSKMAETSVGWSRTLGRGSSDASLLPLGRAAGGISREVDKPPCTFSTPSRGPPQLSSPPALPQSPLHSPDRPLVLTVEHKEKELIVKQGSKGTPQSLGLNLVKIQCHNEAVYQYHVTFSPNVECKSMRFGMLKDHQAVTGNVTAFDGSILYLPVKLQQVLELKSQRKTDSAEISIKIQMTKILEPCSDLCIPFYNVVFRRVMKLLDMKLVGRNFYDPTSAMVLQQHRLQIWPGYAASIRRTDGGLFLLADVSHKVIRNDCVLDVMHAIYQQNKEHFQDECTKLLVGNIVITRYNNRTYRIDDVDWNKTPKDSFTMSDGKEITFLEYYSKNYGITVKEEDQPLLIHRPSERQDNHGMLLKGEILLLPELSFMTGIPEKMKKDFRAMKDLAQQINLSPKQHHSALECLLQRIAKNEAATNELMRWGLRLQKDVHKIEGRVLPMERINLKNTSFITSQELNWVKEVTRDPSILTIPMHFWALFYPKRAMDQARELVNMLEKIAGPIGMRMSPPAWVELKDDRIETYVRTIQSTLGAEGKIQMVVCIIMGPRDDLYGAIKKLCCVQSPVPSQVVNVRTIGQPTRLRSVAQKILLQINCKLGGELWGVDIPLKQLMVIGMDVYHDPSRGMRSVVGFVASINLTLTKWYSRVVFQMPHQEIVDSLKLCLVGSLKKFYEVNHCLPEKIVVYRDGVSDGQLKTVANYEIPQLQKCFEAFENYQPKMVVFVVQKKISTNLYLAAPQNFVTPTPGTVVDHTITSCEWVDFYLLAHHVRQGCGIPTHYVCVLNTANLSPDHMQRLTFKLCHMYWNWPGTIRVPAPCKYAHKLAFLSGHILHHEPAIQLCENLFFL", "assay": "single-molecule fluorescence"}, "AGO2 (hAGO2)": {"target": "AGO2 (hAGO2) (human, UniProt Q9UKV8 1-859)", "sequence (Q9UKV8 whole entry)": "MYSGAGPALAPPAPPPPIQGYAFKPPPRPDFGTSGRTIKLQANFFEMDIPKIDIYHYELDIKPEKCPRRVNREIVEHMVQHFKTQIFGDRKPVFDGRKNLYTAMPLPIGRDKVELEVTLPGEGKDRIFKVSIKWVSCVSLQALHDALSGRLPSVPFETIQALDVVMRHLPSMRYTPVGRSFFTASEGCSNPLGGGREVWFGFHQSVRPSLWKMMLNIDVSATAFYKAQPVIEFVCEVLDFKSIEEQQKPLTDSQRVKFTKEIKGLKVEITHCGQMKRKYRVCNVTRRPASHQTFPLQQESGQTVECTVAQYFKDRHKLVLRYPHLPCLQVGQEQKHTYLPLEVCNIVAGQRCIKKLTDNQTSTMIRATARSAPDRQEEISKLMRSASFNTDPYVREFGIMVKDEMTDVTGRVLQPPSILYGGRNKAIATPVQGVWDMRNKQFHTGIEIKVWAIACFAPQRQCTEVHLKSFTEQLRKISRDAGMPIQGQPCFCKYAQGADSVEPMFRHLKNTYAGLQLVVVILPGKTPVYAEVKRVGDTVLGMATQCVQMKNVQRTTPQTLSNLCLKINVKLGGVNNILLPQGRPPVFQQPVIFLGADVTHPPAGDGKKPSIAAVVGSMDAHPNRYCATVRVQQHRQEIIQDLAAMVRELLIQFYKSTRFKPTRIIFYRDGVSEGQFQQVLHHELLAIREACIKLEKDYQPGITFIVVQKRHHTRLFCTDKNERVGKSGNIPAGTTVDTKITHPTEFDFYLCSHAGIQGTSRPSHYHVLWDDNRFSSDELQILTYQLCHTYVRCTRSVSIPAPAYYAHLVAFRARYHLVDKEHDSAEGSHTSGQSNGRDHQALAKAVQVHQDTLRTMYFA", "assay": "single-molecule fluorescence"}}, "data": [{"binder": "UGAGGUAGUAGGUUGUGUGGUU (ssRNA)", "note": "[let-7b (Fl)]", "values": [{"measurement": "Kd", "setting": "AUF1 p42", "value": 9.7, "unit": "nM"}, {"measurement": "Kd", "setting": "AUF1 p37", "value": 5.9, "unit": "nM"}, {"measurement": "binding result", "setting": "AUF1 p37 C207E [1]", "value": "no binding"}]}, {"binder": "UGAGGUAGUAGGUUGUGUGGUU (ssRNA)", "note": "[let-7b (32P)]", "values": [{"measurement": "binding result", "setting": "AUF1 p37 C207E [2]", "value": "no binding"}]}, {"binder": "CUAUACAACCUACUGCCUUCCC (ssRNA)", "note": "[let-7b* (32P or 3' Fl)]", "values": [{"measurement": "binding result", "setting": "AUF1 p37 C207E [2]", "value": "no binding"}]}, {"binder": "CCCCUGGCUCACAAAUACCUUAUUUAUUUAUUUAG (ssRNA)", "note": "[canonical AU-rich element]", "values": [{"measurement": "binding result", "setting": "AUF1 p37 C207E [2]", "value": "no binding"}]}, {"binder": "UGAGGUAGUAGGUUGUGUGGUU (ssRNA, amino-modifier C6 U at position 18 (iAmMC6))", "note": "[Cy5-let-7b (internal)]", "values": [{"measurement": "binding result", "setting": "HILI (hHILI)", "value": "no binding"}, {"measurement": "binding result", "setting": "AGO2 (hAGO2)", "value": "binds"}]}]}
